Substrate in this data set: CC(C)/C=C/CCCCC(=O)SCCNC(=O)CCNC(=O)[C@H](O)C(C)(C)COP(=O)(O)OP(=O)(O)OC[C@H]1O[C@@H](n2cnc3c(N)ncnc32)[C@H](O)[C@@H]1OP(=O)(O)O
Description: HPLC/MS capsaicin formation. The data set is classed as biochemical, Capsicum chinense. Particulars: co-substrate vanilloylamine (saturating per Figure S3), 50 mM TRIS/HCl pH 7.5, 150 mM NaCl, 10% glycerol, 1 mM TCEP, partly purified enzyme, single measurement, three technical replicates.

This is an account of results in paper PMC9606859, “Chemical Synthesis of Trans 8-Methyl-6-Nonenoyl-CoA and Functional Expression Unravel Capsaicin Synthase Activity Encoded by the Pun1 Locus” (Molecules, 2022).

One may read the Km as the concentration of substrate that gives half-maximal velocity.

B1: recombinant capsaicin synthase (AT3, Pun1) (Capsicum chinense) (protein)
chain: MAFALPSSLVSVCDKSFIKPSSLTPSTLRFHKLSFIDQSLSNMYIPCAFFYPKVQQRLEDSKNSDELSHIAHLLQTSLSQTLVSYYPYAGKLKDNATVDCNDMGAEFLSVRIKCSMSEILDHPHASLAESIVLPKDLPWANNCEGGNLLVVQVSKFDCGGIAISVCFSHKIGDGCSLLNFLNDWSSVTRDHTTTTLVPSPRFVGDSVFSTKTYGSLTTPQILSDLNECVQKRLIFPTDKLDALRAKVAEESGVKNPTRAEVVSALLFKCATKASSSMLPSKLVHFLNIRTMIKPRLPRNTIGNLSSIFSIEATNMQDMELPTLVRNLRKEVEVAYKKDQVEQNELILEVVESMREGKLPFENMDGYENVYTCSNLCKYPYYTVDFGWGRPERVCLGNGPSKNAFFLKDYKAGQGVEARVMLHKQQMSEFERNEELLEFIA
notes: full length, codon-optimized 1332 bp NdeI/XhoI fragment in pET-16b, His-tag (2 kDa) kept; E. coli SoluBL21; partly purified (Ni-NTA, SEC); monomer
Regarding B1, the Km came to 480 ± 240 µM.
